The record followed here is IntAct's records for PubMed 31515488.

The chains are these.
B1: Intraflagellar transport protein 27 homolog (Homo sapiens), Q9BW83 (parent)
chain: MVKLAAKCILAGDPAVGKTALAQIFRSDGAHFQKSYTLTTGMDLVVKTVPVPDTGDSVELFIFDSAGKELFSEMLDKLWESPNVLCLVYDVTNEESFNNCSKWLEKARSQAPGISLPGVLVGNKTDLAGRRAVDSAEARAWALGQGLECFETSVKEMENFEAPFHCLAKQFHQLYREKVEVFRALA
partner: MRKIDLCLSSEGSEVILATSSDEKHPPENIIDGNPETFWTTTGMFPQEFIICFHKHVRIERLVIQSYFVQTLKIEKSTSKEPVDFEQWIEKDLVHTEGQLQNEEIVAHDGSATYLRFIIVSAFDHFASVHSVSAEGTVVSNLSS
B2: Protein LDOC1 (Homo sapiens), O95751 (parent)
chain: MVDELVLLLHALLMRHRALSIENSQLMEQLRLLVCERASLLRQVRPPSCPVPFPETFNGESSRLPEFIVQTASYMLVNENRFCNDAMKVAFLISLLTGEAEEWVVPYIEMDSPILGDYRAFLDEMKQCFGWDDDEDDDDEEEEDDY
partner: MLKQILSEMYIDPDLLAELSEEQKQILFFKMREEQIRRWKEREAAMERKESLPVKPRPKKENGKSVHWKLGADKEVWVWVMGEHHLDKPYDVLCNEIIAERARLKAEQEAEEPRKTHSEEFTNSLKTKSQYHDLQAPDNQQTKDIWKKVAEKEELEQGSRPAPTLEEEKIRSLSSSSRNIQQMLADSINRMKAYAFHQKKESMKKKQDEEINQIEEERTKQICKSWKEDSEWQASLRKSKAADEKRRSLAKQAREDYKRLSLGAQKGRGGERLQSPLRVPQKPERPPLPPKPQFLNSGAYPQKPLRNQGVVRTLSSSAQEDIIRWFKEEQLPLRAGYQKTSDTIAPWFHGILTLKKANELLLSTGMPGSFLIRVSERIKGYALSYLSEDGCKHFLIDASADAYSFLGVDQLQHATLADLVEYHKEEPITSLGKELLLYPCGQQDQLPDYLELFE
B3: Protein LDOC1 (Homo sapiens), O95751 (parent)
chain: B2 chain
partner: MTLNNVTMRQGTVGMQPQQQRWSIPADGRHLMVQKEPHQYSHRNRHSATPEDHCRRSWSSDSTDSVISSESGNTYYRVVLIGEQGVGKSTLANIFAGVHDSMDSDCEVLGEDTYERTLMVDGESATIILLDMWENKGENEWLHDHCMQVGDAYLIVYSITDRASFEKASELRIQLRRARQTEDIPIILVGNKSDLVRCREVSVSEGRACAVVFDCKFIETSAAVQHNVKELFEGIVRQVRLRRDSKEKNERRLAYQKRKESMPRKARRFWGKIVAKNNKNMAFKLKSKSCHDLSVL
B4: "Peptide-N(4)-(N-acetyl-beta-glucosaminyl)asparagine amidase" (Homo sapiens), Q96IV0 (parent)
chain: MAAAALGSSSGSASPAVAELCQNTPETFLEASKLLLTYADNILRNPNDEKYRSIRIGNTAFSTRLLPVRGAVECLFEMGFEEGETHLIFPKKASVEQLQKIRDLIAIERSSRLDGSNKSHKVKSSQQPAASTQLPTTPSSNPSGLNQHTRNRQGQSSDPPSASTVAADSAILEVLQSNIQHVLVYENPALQEKALACIPVQELKRKSQEKLSRARKLDKGINISDEDFLLLELLHWFKEEFFHWVNNVLCSKCGGQTRSRDRSLLPSDDELKWGAKEVEDHYCDACQFSNRFPRYNNPEKLLETRCGRCGEWANCFTLCCRAVGFEARYVWDYTDHVWTEVYSPSQQRWLHCDACEDVCDKPLLYEIGWGKKLSYVIAFSKDEVVDVTWRYSCKHEEVIARRTKVKEALLRDTINGLNKQRQLFLSENRRKELLQRIIVELVEFISPKTPKPGELGGRISGSVAWRVARGEMGLQRKETLFIPCENEKISKQLHLCYNIVKDRYVRVSNNNQTISGWENGVWKMESIFRKVETDWHMVYLARKEGSSFAYISWKFECGSVGLKVDSISIRTSSQTFQTGTVEWKLRSDTAQVELTGDNSLHSYADFSGATEVILEAELSRGDGDVAWQHTQLFRQSLNDHEENCLEIIIKFSDL
B5: Beta-crystallin A4 (Homo sapiens), P53673 (parent)
chain: MTLQCTKSAGPWKMVVWDEDGFQGRRHEFTAECPSVLELGFETVRSLKVLSGAWVGFEHAGFQGQQYILERGEYPSWDAWGGNTAYPAERLTSFRPAACANHRDSRLTIFEQENFLGKKGELSDDYPSLQAMGWEGNEVGSFHVHSGAWVCSQFPGYRGFQYVLECDHHSGDYKHFREWGSHAPTFQVQSIRRIQQ
B6: Myogenin (Homo sapiens), P15173 (parent)
chain: MELYETSPYFYQEPRFYDGENYLPVHLQGFEPPGYERTELTLSPEAPGPLEDKGLGTPEHCPGQCLPWACKVCKRKSVSVDRRRAATLREKRRLKKVNEAFEALKRSTLLNPNQRLPKVEILRSAIQYIERLQALLSSLNQEERDLRYRGGGGPQPGVPSECSSHSASCSPEWGSALEFSANPGDHLLTADPTDAHNLHSLTSIVDSITVEDVSVAFPDETMPN

The variants in one experiment derive from B1. The conditions noted are these: with ift25_human IFT25, Q9Y547.
A142V: the “effect of a mutation on the interaction” value is reported as “disrupting interaction strength”.

The variants in the next experiment derive from B2. Particulars: with sh24a_human SH2D4A.
For the variant L12H, the “effect of a mutation on the interaction” value is recorded as “disrupting interaction strength”.

A further experiment covers variants of B3. Particulars: with gem_human GEM.
Consider L12H, for which the “effect of a mutation on the interaction” value is “disrupting interaction strength”.

Variants of B4 are the subject of a further experiment. The conditions noted are these: with ubql1_human UBQLN1, Q9UMX0.
ubql1_human UBQLN1, Q9UMX0, sequence (Q9UMX0 whole entry): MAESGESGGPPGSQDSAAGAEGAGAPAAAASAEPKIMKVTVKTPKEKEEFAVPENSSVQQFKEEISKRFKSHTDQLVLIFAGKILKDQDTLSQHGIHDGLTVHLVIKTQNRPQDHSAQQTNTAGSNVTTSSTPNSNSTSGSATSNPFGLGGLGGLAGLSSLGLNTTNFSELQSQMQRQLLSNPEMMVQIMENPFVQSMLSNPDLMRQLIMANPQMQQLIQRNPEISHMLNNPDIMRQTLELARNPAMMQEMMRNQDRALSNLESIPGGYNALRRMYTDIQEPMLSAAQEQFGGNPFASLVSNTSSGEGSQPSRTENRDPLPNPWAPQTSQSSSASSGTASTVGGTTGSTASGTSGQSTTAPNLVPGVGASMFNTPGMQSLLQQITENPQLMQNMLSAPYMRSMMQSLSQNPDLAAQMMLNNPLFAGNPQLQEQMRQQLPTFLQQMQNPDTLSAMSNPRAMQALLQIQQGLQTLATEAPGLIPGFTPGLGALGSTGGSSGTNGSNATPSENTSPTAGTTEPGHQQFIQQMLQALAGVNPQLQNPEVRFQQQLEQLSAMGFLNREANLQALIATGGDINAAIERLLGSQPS
As for F292L, the “effect of a mutation on the interaction” value is “with no effect”.
For V184F, the “effect of a mutation on the interaction” value is “with no effect”.

Another experiment covers variants of B4. Particulars: with trad1_human TRAFD1, O14545.
trad1_human TRAFD1, O14545, sequence (O14545 whole entry): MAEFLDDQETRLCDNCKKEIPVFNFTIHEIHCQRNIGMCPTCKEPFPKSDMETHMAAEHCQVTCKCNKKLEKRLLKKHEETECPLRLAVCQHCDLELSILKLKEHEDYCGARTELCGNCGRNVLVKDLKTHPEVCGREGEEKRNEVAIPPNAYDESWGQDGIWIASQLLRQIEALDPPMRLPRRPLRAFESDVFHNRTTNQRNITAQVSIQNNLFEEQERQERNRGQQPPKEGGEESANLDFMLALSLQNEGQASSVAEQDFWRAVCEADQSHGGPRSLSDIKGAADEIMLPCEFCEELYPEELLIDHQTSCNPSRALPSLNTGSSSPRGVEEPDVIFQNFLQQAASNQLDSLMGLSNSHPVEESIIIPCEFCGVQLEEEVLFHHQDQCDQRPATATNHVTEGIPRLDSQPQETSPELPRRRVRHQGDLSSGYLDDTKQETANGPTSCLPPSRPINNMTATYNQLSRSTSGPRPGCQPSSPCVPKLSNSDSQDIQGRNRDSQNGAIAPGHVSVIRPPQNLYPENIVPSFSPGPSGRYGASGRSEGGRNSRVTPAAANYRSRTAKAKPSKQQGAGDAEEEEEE
On to F292L, for which the “effect of a mutation on the interaction” value is given as “with no effect”.
Consider V184F, for which the “effect of a mutation on the interaction” value was “with no effect”.

Variants of B4 are the subject of another experiment. The conditions noted are these: with gucd1_human GUCD1, Q96NT3.
gucd1_human GUCD1, Q96NT3, sequence (Q96NT3 whole entry): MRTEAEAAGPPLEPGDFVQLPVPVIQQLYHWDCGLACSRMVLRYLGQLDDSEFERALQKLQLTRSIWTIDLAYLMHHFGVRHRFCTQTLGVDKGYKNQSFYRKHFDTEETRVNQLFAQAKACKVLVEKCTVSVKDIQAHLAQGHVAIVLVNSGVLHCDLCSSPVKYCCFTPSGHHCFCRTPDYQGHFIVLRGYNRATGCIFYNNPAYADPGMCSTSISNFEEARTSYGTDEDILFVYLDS
As to V184F, the “effect of a mutation on the interaction” value was “with no effect”.

The variants in a further experiment derive from B5. The conditions noted are these: with cep76_human CEP76, Q8TAP6.
cep76_human CEP76, Q8TAP6, sequence (Q8TAP6 whole entry): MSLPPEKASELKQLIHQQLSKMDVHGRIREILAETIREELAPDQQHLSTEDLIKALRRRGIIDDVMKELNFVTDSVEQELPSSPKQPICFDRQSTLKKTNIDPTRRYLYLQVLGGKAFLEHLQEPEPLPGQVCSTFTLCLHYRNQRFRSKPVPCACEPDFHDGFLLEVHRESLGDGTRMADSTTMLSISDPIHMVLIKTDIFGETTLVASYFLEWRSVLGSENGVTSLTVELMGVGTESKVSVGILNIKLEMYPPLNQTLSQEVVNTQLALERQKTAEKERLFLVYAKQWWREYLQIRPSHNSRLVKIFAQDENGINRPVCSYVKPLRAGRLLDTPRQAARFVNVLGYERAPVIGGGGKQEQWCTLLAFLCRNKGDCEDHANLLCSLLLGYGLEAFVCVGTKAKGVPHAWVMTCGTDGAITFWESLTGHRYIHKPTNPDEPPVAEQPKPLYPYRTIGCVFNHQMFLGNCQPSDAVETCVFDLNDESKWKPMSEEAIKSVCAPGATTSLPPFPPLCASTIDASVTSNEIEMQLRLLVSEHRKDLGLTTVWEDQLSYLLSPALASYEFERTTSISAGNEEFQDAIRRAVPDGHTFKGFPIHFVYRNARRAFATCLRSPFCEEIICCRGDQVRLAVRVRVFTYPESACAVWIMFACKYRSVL
As to R103C, the “effect of a mutation on the interaction” value is on record as “with no effect”.

A further experiment covers variants of B6. The conditions noted are these: with if4e2_human EIF4E2, O60573.
if4e2_human EIF4E2, O60573, sequence (O60573 whole entry): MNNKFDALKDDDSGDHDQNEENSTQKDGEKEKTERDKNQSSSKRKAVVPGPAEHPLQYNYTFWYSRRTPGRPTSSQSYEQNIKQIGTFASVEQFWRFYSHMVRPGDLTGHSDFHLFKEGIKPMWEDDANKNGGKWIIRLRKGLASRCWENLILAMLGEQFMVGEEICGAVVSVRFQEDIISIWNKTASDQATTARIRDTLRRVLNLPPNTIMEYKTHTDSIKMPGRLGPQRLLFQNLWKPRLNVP
Turning to A181T, the “effect of a mutation on the interaction” value is on record as “disrupting interaction strength”.

In the next experiment the parent is B6. The conditions noted are these: with cc28a_human CCDC28A.
Take A181T: the “effect of a mutation on the interaction” value was “disrupting interaction strength”.

In another experiment the parent is B6. The conditions noted are these: with mlh1_human MLH1, P40692.
mlh1_human MLH1, P40692, sequence (P40692 whole entry): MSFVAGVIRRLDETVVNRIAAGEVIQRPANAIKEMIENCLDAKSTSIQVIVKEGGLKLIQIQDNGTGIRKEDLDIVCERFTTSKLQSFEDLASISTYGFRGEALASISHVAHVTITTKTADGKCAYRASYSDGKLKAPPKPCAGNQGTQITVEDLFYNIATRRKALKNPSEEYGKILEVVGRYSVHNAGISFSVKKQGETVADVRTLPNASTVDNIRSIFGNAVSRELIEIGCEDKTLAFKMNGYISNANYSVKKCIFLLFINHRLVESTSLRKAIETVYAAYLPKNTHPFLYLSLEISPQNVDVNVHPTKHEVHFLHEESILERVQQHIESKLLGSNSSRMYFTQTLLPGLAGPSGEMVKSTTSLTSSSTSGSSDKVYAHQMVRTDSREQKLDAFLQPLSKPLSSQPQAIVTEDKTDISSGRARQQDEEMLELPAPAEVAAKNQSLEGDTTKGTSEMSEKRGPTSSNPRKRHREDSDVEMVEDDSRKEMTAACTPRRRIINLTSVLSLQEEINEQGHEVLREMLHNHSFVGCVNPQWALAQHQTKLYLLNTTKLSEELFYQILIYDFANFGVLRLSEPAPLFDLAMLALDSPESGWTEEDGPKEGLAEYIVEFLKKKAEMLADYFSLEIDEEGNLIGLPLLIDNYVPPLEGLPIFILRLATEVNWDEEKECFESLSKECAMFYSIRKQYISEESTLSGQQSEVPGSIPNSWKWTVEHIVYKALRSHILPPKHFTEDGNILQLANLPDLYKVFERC
A181T: the “effect of a mutation on the interaction” value is on record as “disrupting interaction strength”.
